According to patent publication US20150344570A1 (published 2015):

T1: FcγRIIa H (human, UniProt P12318 34-217)
T1 construct: extracellular domain; also called FcγRIIa type H; 2aH; not shown: His tag at the C terminus
T1 sequence (looked up): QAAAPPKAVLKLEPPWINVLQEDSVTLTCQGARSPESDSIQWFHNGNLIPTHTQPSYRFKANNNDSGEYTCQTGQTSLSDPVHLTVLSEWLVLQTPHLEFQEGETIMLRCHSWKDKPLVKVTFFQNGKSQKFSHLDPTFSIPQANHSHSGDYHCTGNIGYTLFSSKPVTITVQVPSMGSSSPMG

T2: FcγRIIb (human, UniProt P31994 43-217)
T2 construct: extracellular domain; also called 2b; not shown: His tag at the C terminus
T2 sequence (looked up): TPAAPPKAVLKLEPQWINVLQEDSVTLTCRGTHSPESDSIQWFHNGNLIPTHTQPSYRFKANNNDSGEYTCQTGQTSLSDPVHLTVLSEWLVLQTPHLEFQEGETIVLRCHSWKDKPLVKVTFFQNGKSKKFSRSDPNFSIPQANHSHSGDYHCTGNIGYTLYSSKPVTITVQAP

T3: FcγRIIa H (FcgRIIa type H, His at position 131), extracellular domain with C-terminal His tag (human, UniProt P12318 34-217)
T3 construct: extracellular domain; also called 2aH; FcgRIIa H; not shown: His tag at the C terminus
T3 sequence (looked up): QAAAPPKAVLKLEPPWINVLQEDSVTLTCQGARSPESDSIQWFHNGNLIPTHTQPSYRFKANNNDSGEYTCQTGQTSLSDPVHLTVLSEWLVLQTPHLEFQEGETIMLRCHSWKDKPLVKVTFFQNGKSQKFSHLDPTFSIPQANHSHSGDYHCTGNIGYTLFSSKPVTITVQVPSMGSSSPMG

T4: FcγRIIb, extracellular domain with C-terminal His tag (human, UniProt P31994 43-217)
T4 construct: extracellular domain; also called 2b; FcgRIIb; not shown: His tag at the C terminus
T4 sequence (looked up): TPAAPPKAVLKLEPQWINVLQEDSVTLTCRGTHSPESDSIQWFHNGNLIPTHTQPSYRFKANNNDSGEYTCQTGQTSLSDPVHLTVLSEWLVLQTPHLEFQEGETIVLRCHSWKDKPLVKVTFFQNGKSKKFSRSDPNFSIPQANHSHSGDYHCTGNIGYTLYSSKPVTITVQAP


Columns and labels:
FcγRIIa H = molecular target: T1, FcγRIIa H; assay: SPR (Biacore), antibody captured, FcγR as analyte; binding relative to GpH7-A5/GpH7-B3/GpL16-k0 = 100
Procedure: (§1) The heterodimerized antibodies He Abs in which one of the H chains was introduced with an alteration were assayed for their binding activities to each activating FcγR and inhibitory FcγR according to the method described in Example 4. […] The activating FcγRs in FIGS. 26, 27, 28, and 29 are FcγRIa, FcγRIIa (R), FcγRIIa (H), and FcγRIIIa, respectively.
(§2) Analysis of interaction between objective antibody and the FcγR was carried out using Biacore T100 (GE Healthcare). HBS-EP+ (GE Healthcare) was used as the running buffer, and the measurement temperature was set to 25° C. Chips produced by immobilizing the antigen peptide by the amine coupling method to a Series S Sencor Chip CM5 (GE Healthcare), or alternatively, chips produced by allowing preliminarily biotinylated antigen peptides to interact with and immobilize onto a Series S Sensor Chip SA (certified) (GE Healthcare) were used. Antibodies of interest were captured onto an antigen peptide-immobilized chip, and allowed to interact to each FcγR diluted with running buffer. To regenerate and repeatedly use the chip, the antibodies captured on the chip were washed off by reacting 10 mM glycine-HCl, pH 1.5.

FcγRIIb = molecular target: T2, FcγRIIb; assay: as above
Procedure: as §1, §2

[1] = molecular target: T3, FcγRIIa H (FcgRIIa type H, His at …); assay: SPR (Biacore), relative binding, GpH7-A5/GpH7-B3/GpL16-k0 = 100
[2] = molecular target: T4, FcγRIIb, extracellular domain with …; assay: as above

Binder | He/Con_2aH (FcγRIIa H) | He/Con_2b (FcγRIIb) | He/Con_2aH [1] | He/Con_2b [2]
GpH7-A5/GpH7-B3 variant A330_11K/GpL16-k0 (antibody, human IgG1, kappa, Heterodimerized IgG1; mutation in the GpH7-B3 chain only; also called He Ab) heavy 1: not shown heavy 2: not shown light: DIVMTQSPLSLPVTPGEPASISCQASESLVHSNRNTYLHWYLQKPGQSPQLLIYKVSNRFSGVPDRFSGSGSGTDFTLKISRVEAEDVGVYYCSQNTHVPPTFGQGTKVEIERTVAAPSVFIFPPSDEQLKSGTASVVCLLNNFYPREAKVQWKVDNALQSGNSQESVTEQDSKDSTYSLSSTLTLSKADYEKHKVYACEVTHQGLSSPVTKSFNRGEC | 109 % of control | 95 % of control | – | –
GpH7-A5/GpH7-B3 variant A330_12R/GpL16-k0 (antibody, human IgG1, kappa, Heterodimerized IgG1; mutation in the GpH7-B3 chain only; also called He Ab) heavy 1: not shown heavy 2: not shown light: DIVMTQSPLSLPVTPGEPASISCQASESLVHSNRNTYLHWYLQKPGQSPQLLIYKVSNRFSGVPDRFSGSGSGTDFTLKISRVEAEDVGVYYCSQNTHVPPTFGQGTKVEIERTVAAPSVFIFPPSDEQLKSGTASVVCLLNNFYPREAKVQWKVDNALQSGNSQESVTEQDSKDSTYSLSSTLTLSKADYEKHKVYACEVTHQGLSSPVTKSFNRGEC | 108 % of control | 84.8 % of control | – | –
GpH7-A5/GpH7-B3 variant P331_10E/GpL16-k0 (antibody, human IgG1, kappa, He Ab; alteration in one H chain only; also called He Ab) heavy 1: not shown heavy 2: not shown light: DIVMTQSPLSLPVTPGEPASISCQASESLVHSNRNTYLHWYLQKPGQSPQLLIYKVSNRFSGVPDRFSGSGSGTDFTLKISRVEAEDVGVYYCSQNTHVPPTFGQGTKVEIERTVAAPSVFIFPPSDEQLKSGTASVVCLLNNFYPREAKVQWKVDNALQSGNSQESVTEQDSKDSTYSLSSTLTLSKADYEKHKVYACEVTHQGLSSPVTKSFNRGEC | – | – | 87.1 % of control | 116 % of control
GpH7-A5/GpH7-B3 variant E333_04F/GpL16-k0 (antibody, human IgG1, kappa, Heterodimerized IgG1; mutation in the GpH7-B3 chain only; also called He Ab) heavy 1: not shown heavy 2: not shown light: DIVMTQSPLSLPVTPGEPASISCQASESLVHSNRNTYLHWYLQKPGQSPQLLIYKVSNRFSGVPDRFSGSGSGTDFTLKISRVEAEDVGVYYCSQNTHVPPTFGQGTKVEIERTVAAPSVFIFPPSDEQLKSGTASVVCLLNNFYPREAKVQWKVDNALQSGNSQESVTEQDSKDSTYSLSSTLTLSKADYEKHKVYACEVTHQGLSSPVTKSFNRGEC | 102 % of control | 94.6 % of control | – | –
GpH7-A5/GpH7-B3 variant D270_10E/GpL16-k0 (antibody, human IgG1, kappa, Heterodimerized IgG1; mutation in the GpH7-B3 chain only; also called He Ab) heavy 1: not shown heavy 2: not shown light: DIVMTQSPLSLPVTPGEPASISCQASESLVHSNRNTYLHWYLQKPGQSPQLLIYKVSNRFSGVPDRFSGSGSGTDFTLKISRVEAEDVGVYYCSQNTHVPPTFGQGTKVEIERTVAAPSVFIFPPSDEQLKSGTASVVCLLNNFYPREAKVQWKVDNALQSGNSQESVTEQDSKDSTYSLSSTLTLSKADYEKHKVYACEVTHQGLSSPVTKSFNRGEC | 102 % of control | 76.5 % of control | – | –
GpH7-A5/GpH7-B3 variant S337_18N/GpL16-k0 (antibody, human IgG1, kappa, He Ab; alteration in one H chain only; also called He Ab) heavy 1: not shown heavy 2: not shown light: DIVMTQSPLSLPVTPGEPASISCQASESLVHSNRNTYLHWYLQKPGQSPQLLIYKVSNRFSGVPDRFSGSGSGTDFTLKISRVEAEDVGVYYCSQNTHVPPTFGQGTKVEIERTVAAPSVFIFPPSDEQLKSGTASVVCLLNNFYPREAKVQWKVDNALQSGNSQESVTEQDSKDSTYSLSSTLTLSKADYEKHKVYACEVTHQGLSSPVTKSFNRGEC | – | – | 99.8 % of control | 103 % of control
GpH7-A5/GpH7-B3 variant E333_08L/GpL16-k0 (antibody, human IgG1, kappa, Heterodimerized IgG1; mutation in the GpH7-B3 chain only; also called He Ab) heavy 1: not shown heavy 2: not shown light: DIVMTQSPLSLPVTPGEPASISCQASESLVHSNRNTYLHWYLQKPGQSPQLLIYKVSNRFSGVPDRFSGSGSGTDFTLKISRVEAEDVGVYYCSQNTHVPPTFGQGTKVEIERTVAAPSVFIFPPSDEQLKSGTASVVCLLNNFYPREAKVQWKVDNALQSGNSQESVTEQDSKDSTYSLSSTLTLSKADYEKHKVYACEVTHQGLSSPVTKSFNRGEC | 102 % of control | 95 % of control | – | –
GpH7-A5/GpH7-B3 variant P331_16H/GpL16-k0 (antibody, human IgG1, kappa, He Ab; alteration in one H chain only; also called He Ab) heavy 1: not shown heavy 2: not shown light: DIVMTQSPLSLPVTPGEPASISCQASESLVHSNRNTYLHWYLQKPGQSPQLLIYKVSNRFSGVPDRFSGSGSGTDFTLKISRVEAEDVGVYYCSQNTHVPPTFGQGTKVEIERTVAAPSVFIFPPSDEQLKSGTASVVCLLNNFYPREAKVQWKVDNALQSGNSQESVTEQDSKDSTYSLSSTLTLSKADYEKHKVYACEVTHQGLSSPVTKSFNRGEC | – | – | 84.5 % of control | 116 % of control
